Assay results published in patent US20230031280A1, “GLP-2 FUSION POLYPEPTIDES AND USES FOR TREATING AND PREVENTING GASTROINTESTINAL CONDITIONS” (SHIRE-NPS PHARMACEUTICALS, INC., priority 2017, published 2023).

Tests used:
[1] = molecular target: T1, hFcRn (extracellular domain of the FcRN) (Homo sapiens, UniProt P55899); assay: FcRn binding by surface plasmon resonance (Biacore)
T1 construct: made in house
Description: Binding to the Fc neonatal receptor (FcRN) allows for recycling of the molecules and leads to an extended in vivo serum half-life of the Fc fusion proteins. Recycling occurs as the molecules are passively taken into the cells and the pH of the endosomes is lower. That leads to binding of the Fc portion of the molecule to the FcRN. When the FcRN recycles back to the surface of the cell, the pH is then neutral and the protein is released back into the serum.
Binding to the extracellular domain of the FcRN was measured by surface plasmon resonance (SPR) using a Biacore system. Direct immobilization with FcRn was achieved via amine coupling of a CM5 chip with FcRn under the following conditions: • i) hFcRn (expressed and purified in house) is diluted in Acetate buffer pH 5.0 to 5 μg/mL. • ii) Immobilize 5 μg/mL of FcRn with target of 500 RU on CM5 chip in PBS pH 7.0 • iii) Final response 454 RU • iv) Running buffer: PBS-P+, pHed to 5.5
The kinetic binding study was done using the following protocol. Samples were diluted in PBS-P+ to 50, 25, 12.5, 6.25, 3.125, 1.56, 0.78, 0.39, 0 nM. The parameters were set as follows: • i) Association and Dissociation 300 s at Flow rate 30 μL/min • ii) Regeneration with 25 mM Tris, 150 mM NaCl pH 8.0 40 s at 60 μL/min
A measurement of the binding of the GLP-2 peptibodies to the Fc neonatal receptor (FcRN) was undertaken at pH 5.5 and pH 7.4.

[2] = NanoDSF melting temperature / thermal stability; type: physicochemical
Procedure: Each of the GLP-2 peptibodies was tested by determining melting temperature with nanodifferential scanning fluorimetry (NanoDSF). NanoDSF is a measurement of protein stability over a range of temperatures, with a temperature ramp employed. The stability of tryptophan is measured by fluorescence, as reflected in a ratio of fluorescence at 350 nm to fluorescence at 330 nm. From the assay, one or more melting temperatures are determined. Because a protein in a certain state is understood to have a melting temperature, the number of melting temperatures observed reflects the number of different states.
(§1) Stability analysis was then performed using SEC-MALS and NanoDSF. For SEC-MALS, a Sepax Zenix C-150 column was used. The mobile phase buffer was 1× PBS with a final concentration of 400 mM NaCl. The flow rate was 0.8 mL per minute. 20 micrograms of total protein was injected. For NanoDSF, 10 microliters of sample was used, without normalization of the samples.
as §1

[3] = SEC-MALS (Sepax Zenix C-150) peak distribution; type: physicochemical
Procedure: A SEC-MALS assay was performed to determine the primary state (main peak) and its molecular weight. […] The GLP-2 peptibody O (albumin fusion) eluted at a molecular weight indicative of a monomer.
as §1, §1

[4] = Rat pharmacokinetics, intravenous dosing; type: in vivo, Sprague-Dawley rats; conditions: single dose 1 mg/ml
Procedure: (§2) In the rat, four pharmacokinetic parameters were measured for Gattex® (a GLP-2 peptide having the A2G mutation): CL, Vc, Vt and Q. The same pharmacokinetic parameters were also measured for GLP-2 peptibodies A, B, E, J, K, L, M, O and P. The data is shown in Table 4. Male Sprague-Dawley rats (3 animals per group) were injected intravenously either via a jugular vein or tail vein catheter. A singles dose of test article was injected at a dose level of 1 mg/ml. The test articles were formulated in PBS pH 7.4 at a concentration of Blood samples were taken 0.083, 0.167, 0.33, 0.5, 1, 2, 6, 24, 48, 72, 120, 168, 240, and 336 hours post dose. Blood samples were collected into heparinized tubes and centrifuged for 5 minutes at 2000 xg within 10 minutes of collection. 100 μL of plasma were transferred to a 1.5 ml Eppendorf tube containing 2 μL of 50 mM PMSF. After mixing, the plasma samples were frozen at −80° C. until analysis.

[5] = Rat pharmacokinetics, subcutaneous dosing; type: in vivo, Sprague-Dawley rats; conditions: single dose 1 mg/ml
Procedure: as §2, with “5.” for “4.”, “subcutaneously into the intra-scapular region of the animal.” for “intravenously either via a jugular vein or tail vein catheter.”, “[…]” for “1.5”, “mixing” for “mixing,”, “analysis. Meso Scale Discovery (MSD) ELISA was undertaken to assay for the concentration of the GLP-2 peptibodies.” for “analysis.”
A sandwich immunoassay was developed using either an anti-Human IgG1 Fc antibody or an anti-human albumin antibody for capture of the peptibody and a sulfotag labeled anti GLP-2 antibody for detection.

[6] = Cynomolgus monkey pharmacokinetic study; type: in vivo, cynomolgus monkeys; conditions: 0.75 mg/kg
Procedure: Pharmacokinetics studies of teduglutide, GLP-2 Peptibody B and GLP-2 Peptibody K were formed in cynomolgus monkeys with citrulline assayed as a biomarker of GLP-2 concentration. In the study, 12.5 nmol/kg teduglutide was administered subcutaneously to a group of 6 male cynomolgus monkeys at day 1. Then for one set of 2 monkeys, 25 nmol/kg GLP-2 Peptibody B was administered intravenously at day 7, day 21, day 28, day 35, and day 42. For another set of 3 monkeys, 25 nmol/kg GLP-2 Peptibody B was administered subcutaneously at day 7, day 21, day 28, day 35, and day 42. For another set of monkeys, 5 nmol/kg GLP-2 Peptibody K was administered intravenously (2 monkeys) and subcutaneously (3 monkeys) at day 7, day 21, day 28, day 35, and day 42. For another set of monkeys, 25 nmol/kg GLP-2 Peptibody K was administered subcutaneously (3 monkeys) and intravenously (2 monkeys) at day 7, day 21, day 28, day 35, and day 42.

[7] = Projection of intravenous and subcutaneous PK parameters for humans; set-up: species or system human
Procedure: While a dose of 30 μg/kg once weekly (QW) is projected from the cynomolgus monkey PK data, the dose should be ten times higher (300 μg/kg) to adjust for the difference in in vivo potency.

Kd ([1]; pH 5.5): 1.7 nM | FcRN KD at pH 7.4 ([1]; pH 7.4): No binding in range tested.
Substance: GLP-2 peptibody B: GLP-2[A2G]-GGGGG linker-IgG1 Fc (LALA) with C-terminal lysine; SEQ ID NO: 4
NanoDSF melting temperature 1 ([2]; first transition): 1 = 67.1 °C | NanoDSF melting temperature 2 ([2]; second transition): 2 = 79.9 °C | SEC-MALS Zenix C-150 main peak [3]: 85% main peak, 158,800 g/mol | CL [4]: 48 mL/day/kg | Q [4]: 58 mL/day/kg | Vc [4]: 31 mL/kg | Vt [4]: 76 mL/kg | CL [5]: 43 mL/day/kg | Q [5]: 52 mL/day/kg | Vc [5]: 73 mL/kg | Vt [5]: 68 mL/kg | ka [5]: B (0.45 ka/day, | CL ([6]; MDPK, intravenous): 10.0 mL/day/kg | Q ([6]; MDPK, intravenous): 28.9 mL/day/kg | Vc ([6]; MDPK, intravenous): 18.7 mL/kg | Vt ([6]; MDPK, intravenous): 32.9 mL/kg | CL/F ([6]; MDPK, subcutaneous): 17.7 mL/day/kg | Vc ([6]; MDPK, subcutaneous): 94.0 mL/kg | association constant (ka) ([6]; MDPK, subcutaneous): 1.59 day⁻¹ | CL ([6]; SDPK, intravenous): 9.5 mL/day/kg | Q ([6]; SDPK, intravenous): 26.7 mL/day/kg | Vc ([6]; SDPK, intravenous): 17.1 mL/kg | Vt ([6]; SDPK, intravenous): 27.6 mL/kg | CL/F ([6]; SDPK, subcutaneous): 17.7 mL/day/kg | Vc ([6]; SDPK, subcutaneous): 92.4 mL/kg | association constant (ka) ([6]; SDPK, subcutaneous): 1.52 day⁻¹ | Vc [7]: 49.4 mL/kg | Vt [7]: 42.5 mL/kg | ka [7]: 2.43 day⁻¹ | CL (value in parentheses) ([7]; exponent on CL 0.85, monkey 3.5 kg, human 70 kg): 25.0 mL/day/kg | CL ([7]; first value of cell): 39.2 mL/day/kg | F ([7]; first value of cell): 98% | Q ([7]; first value of cell): 24.1 mL/day/kg | F (value in parentheses) ([7]; value in parentheses): 60% | Q (value in parentheses) ([7]; value in parentheses): 15.4 mL/day/kg
